# Data published in US20130078237A1 (Amgen, published 2013).
# Positions count from the first letter of the chain named. Names and notes keep the numbering of the source.
# B1: Ab8-MCC-DM1 (antibody, human IgG1, kappa, V domains shown)
# VH: QVQLVESGGGVVQPGRSLRLSCAASGFTFSSYGMHWVRQAPGKGLEWVAVIWYDGSDKYFADSVKGRFTISRDNSKNTLYLQMNSLRAEDTAVYYCARDGIAGARYVYFDYWGQGTLVTVSS
# VL: DIQMTQSPSSLSASVGDRVTITCRASQGISNYLAWFQQKPGKAPKSLIYAASSLQGGVPSKFSGSGSGTDFTLTISSLQPEDFATYYCQQYYNYPFTFGPGTTVDIKR
# notes: also called Ab8 antibody drug conjugate; conjugated Ab8
# B2: Ab4-MCC-DM1 (antibody, human IgG1, kappa, V domains shown)
# VH: QVQLVESGGGVVQPGRSLRLSCAASGFTFSNYGIHWVRQAPGKGLEWVAVIWYDGSNKYYADSVKGRFTISRDNSKNTLYLQMNSLRAEDTAVYYCARDGGYSGYDSGFDYWGQGTLVTVSS
# VL: DIVMTQSPLSLPVTPGEPASISCRSSQSLLNSNGYNYLDWYLQKPGQSPQFLIYLGSYRASGVPDRFSGSGSGTDFTLRISRVEAEDVGVYYCIQTLQTPFTFGPGTKVDIKR
# modifications: DM1 linked through MCC (SMCC) to lysine residues; 4.5-5.0 DM1 molecules per antibody on average, sites not given
# notes: also called Ab4 antibody drug conjugate; conjugated Ab4
# B3: Ab3 (antibody, IgG1, V domains shown)
# VH: EVQLLESGGGLVQPGGSLRLSCAASGFTFSSYAMSWVRQAPGKGLEWVSVISDSGGTTDYADSVKGRFTISRDNSKNTLYLQMNSLRAEDTAVYYCARHDYSNRYYFDYWGQGTLVTVSS
# VL: EIVLTQSPGTLSLSPGERATLSCRASQSFSSNYLAWYQQKPGQAPRLFIYGASSRATGIPDRFSGSGSGTDFTLTISRLEPEDFAVYFCQQYGISPCSFGQGTKLEIK
# notes: Tested as hybridoma supernatant
# B4: Ab8 (antibody, human IgG1, kappa, V domains shown)
# VH: B1 VH
# VL: B1 VL
# notes: also called A8; unconjugated Ab8
# B5: Ab6 (antibody, human IgG1, lambda, V domains shown)
# VH: QVQLVQSGAEVKKPGASVKVSCKASGYTFTSYGISWVRQAPGQGLEWMGWISAYNGYTHYAQKLQGRVTMTTDTSTSTAYMELRSLRSDDTAVYYCARDYGGNDYYGMDVWGQGTTVTVSS
# VL: QSVLTQPPSASGTPGQRVTISCSGSSSNIGINYVYWYQQLPGTAPKLLIYRSDQRPSGVPDRFSGSKSGTSASLALSGLRSEDEADYYCAAWDDSLSGVVFGGGTKLTVLG
# notes: Fully human IgG1 from XenoMouse hybridoma
# B6: Ab1 (antibody, human IgG1, kappa, V domains shown)
# VH: QMQLQESGPGLVKPSQTLSLTCTVSDGSIISGVYYWSWIRQHPGKGLEWIGYIYYSGSTSYNPSLKSRLTMSVDTSKNQFSLKLSSVTAADTAVYYCARSGYSYALFDYWGQGTLVTVSS
# VL: DIQMTQSPSSLSASLGDRVTITCRASQSVDRYFNWYQQKPGKAPKVLIFAASSLQSGVPSRFGGSGSGTDFTLTISSLQPEDFATYYCQQSYSTPWTFGQGTKVEVKR
# notes: as for B5
# B7: Ab2 (antibody, human IgG1, kappa, V domains shown)
# VH: B6 VH with M2V, D26G, G27D, V33G, Y54F, S60D, L69V, M71I, Y109H
# VL: DIQMTQSPSSLSASVGDRVTISCRASQFIGRYFNWYQQQPGKAPKVLIYAESSLQSGVPSRFSGSGSGTEFTLTISSLQPEDFARYYCQQSYSTPWTFGQGTKVEIKR
# notes: as for B5
# B8: Ab7 (antibody, human IgG1, lambda, V domains shown)
# VH: QVQLVESGGGVVQPGRSLRLSCAASGFTFSTYGMHWVRQAPGKGLEWVAVIWYDGSNKYYGDSVKGRFTISRDNSKNTLYLQMNSLRAEDTAVYYCARDNSHYYYGMDVWGQGTTVTVSS
# VL: QSVLTQPPSVSGAPGQRVTISCTGSSSNIGAGYDVNWYQQFPGTAPKLLIYVNNNRPSGVPDRFSGSTSGTSASLAITGLQAEDEADYYCQSYDTSLSASVFGGGTRLTVLG
# notes: as for B5
# B9: Ab4 (antibody, human IgG1, kappa, V domains shown)
# VH: B2 VH
# VL: B2 VL
# notes: Fully human IgG1; also called A4; unconjugated parental Ab4
# B10: Ab5 (antibody, human IgG1, kappa, V domains shown)
# VH: QVQLVQSGAEVKKPGASVKVSCKASGYTFTSYDINWVRQATGQGLEWMGWMNPNSGNTGYAQKFQGRVTMTRNTSISTAYMELSSLRSEDTAVYYCARGYDFWSGYYYYYYGMDVWGQGTTVTVSS
# VL: EIVLTQSPGTLSLSPGERATLSCRASQSVSSSYLAWYQQRPGQAPRLLIYGASSRATGIPDRFSGSGSGTDFTLTISSLEPEDFAVYYCLQSGSSVPLTFGGGTKVEIKR
# notes: as for B5
# B11: Ab4 variant R24K-S26G + G33S-I34L (antibody, V domains shown)
# VH: B2 VH with G33S, I34L
# VL: DIVMTQSPLSLPVTPGEPASISCKSGQSLLNSNGYNYLDWYLQKPGQSPQFLIYLGSYRASGVPDRFSGSGSGTDFTLRISRVEAEDVGVYYCIQTLQTPFTFGPGTKVDIK
# notes: Rest as Ab4 (IgG1)
# B12: Ab4 variant Parent LC + S103G-G104S (antibody, V domains shown)
# VH: B2 VH with S103G, G104S
# VL: B11 VL with K24R, G26S
# notes: Rest as Ab4 (IgG1)
# B13: Ab4 variant Q95N-T96S + S103G-G104S (antibody, V domains shown)
# VH: B2 VH with S103G, G104S
# VL: B11 VL with K24R, G26S, Q95N, T96S
# notes: Rest as Ab4 (IgG1)
# B14: Ab4 variant L55I-Y58F + G33S-I34L (antibody, V domains shown)
# VH: B2 VH with G33S, I34L
# VL: B11 VL with K24R, G26S, L55I, Y58F
# notes: Rest as Ab4 (IgG1)
# B15: Ab4 variant Parent LC + G33S-I34L (antibody, V domains shown)
# VH: B2 VH with G33S, I34L
# VL: B11 VL with K24R, G26S
# notes: Rest as Ab4 (IgG1)
# B16: Ab4 variant Q95N-T96S + G33S-I34L (antibody, V domains shown)
# VH: B2 VH with G33S, I34L
# VL: B11 VL with K24R, G26S, Q95N, T96S
# notes: Rest as Ab4 (IgG1)
# Molecular target: T1, human CD27L on the surface of cells (human, UniProt P32970 1-193)
# T1 sequence: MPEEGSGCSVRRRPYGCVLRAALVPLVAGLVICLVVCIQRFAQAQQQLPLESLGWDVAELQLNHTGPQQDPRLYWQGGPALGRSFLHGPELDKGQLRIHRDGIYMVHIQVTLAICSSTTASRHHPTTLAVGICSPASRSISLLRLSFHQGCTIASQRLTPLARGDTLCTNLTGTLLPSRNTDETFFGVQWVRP
# Assay: cell-based or functional assay
Binder,"786-0-IC50, Antibody Conc. (nM); cell growth inhibition, CellTiter-Glo, 4 days","786-0-IC50, Drug Conc. (nM); cell growth inhibition, CellTiter-Glo, 4 days"
B1,0.11 nM,0.54 nM
B2,0.07 nM,0.34 nM

# Molecular target: T1, human CD27L on the surface of cells
# Assay: binding to cells with native human CD27L (column 'Native cell Avidity EC50 nM'); cell line and method not stated for the figure
row,Binder,EC50
1,B3,4.18 nM
2,B4,0.09 nM
3,B5,0.87 nM
4,B6,0.32 nM
5,B7,0.24 nM
6,B8,0.18 nM
7,B9,0.25 nM
8,B10,0.66 nM

# Molecular target: T1, human CD27L on the surface of cells
# Assay: Gyros, native human CD27L on Raji cells
row,Binder,Kd
1,B1,0.077 nM
2,B4,0.078 nM
3,B2,0.023 nM
4,B9,0.014 nM

# Molecular target: T1, human CD27L on the surface of cells
# Assay: flow cytometry (FACS) on 786-0 cells
row,Binder,EC50
1,B1,0.08 nM
2,B4,0.02 nM
3,B2,0.1 nM
4,B9,0.1 nM

# Molecular target: T1, human CD27L on the surface of cells
# Assay: cell-based or functional assay
# Remark: another data set of the same source
row,Binder,"ADCC against Raji cells, EC50 (calcein release, NK effectors)"
1,B2,6 ng/mL
2,B9,10 ng/mL

# Molecular target: T1, human CD27L on the surface of cells
# Assay: flow cytometry on 786-0 cells, reference Ab8
row,Binder,fold change of binding EC50 against Ab8
1,B1,4 fold

# Molecular target: T2, CD27L bound to Maxisorp plates (Homo sapiens (Human), UniProt P32970 39-193, limits assumed)
# T2 sequence: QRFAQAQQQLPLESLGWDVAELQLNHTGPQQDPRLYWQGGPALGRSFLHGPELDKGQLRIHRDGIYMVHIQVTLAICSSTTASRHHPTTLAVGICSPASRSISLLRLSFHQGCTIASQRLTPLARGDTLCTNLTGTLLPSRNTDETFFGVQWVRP
# Assay: ELISA on plate-bound CD27L; abolished = no curve could be generated or max signal less than 5%
# Protocol: CD27L was bound to Maxisorp plates at room temperature for >2 hours, shaking with lug/mL in 100 uL. The plates were then blocked with 250 uL 10% Non-fat dry milk in PBS+0.05% Tween 20 for 2 hours. After a 4×300 uL PBS+0.05% Tween20 (PBST) wash the modified Ab and purified parental control titrations ranging from 0.045 to 100 ng/mL were applied to the plates and incubated for 1 hour. A horseradish peroxidase conjugated αhuFc detection antibody (Jackson) diluted 1:7000 was applied to the plates after another PBST wash, and incubated for 1 hour. A final wash was performed and TMB substrate was incubated for 10 minutes and stopped with phosphoric acid. An OD reading at 450 nm was taken and plotted vs. concentration. These curves were then analyzed with a 3 parameter non linear curve fit and the EC₅₀ and Max calculated signal were compared to the purified control. Binding was determined to be similar to parental if the EC₅₀ was within 2 fold and the Max signal was greater than 50%. The binding was reduced if the EC₅₀ increased greater than 2 fold and/or the max signal was less than 50%. The binding was abolished if no curve could be generated or the max signal was less than 5%.
row,Binder,binding result
1,B11,no binding
2,B12,no binding
3,B13,no binding
4,B14,no binding
5,B15,no binding
6,B16,no binding

# Molecular target: T1, human CD27L on the surface of cells
# Assay: cell-based or functional assay
# Remark: another data set of the same source
Binder,"ADCP, 786-0 EC50 (pM)","ADCP, Raji EC50 (pM)"
B2,0.087 pM,1.42 pM
B9,0.008 pM,0.008 pM

# Molecular target: T3, cynomolgus monkey CD27L (cynomolgus monkey, UniProt A0A2K5WTU9 39-190)
# T3 construct: also called cynomolgus CD27L
# T3 sequence: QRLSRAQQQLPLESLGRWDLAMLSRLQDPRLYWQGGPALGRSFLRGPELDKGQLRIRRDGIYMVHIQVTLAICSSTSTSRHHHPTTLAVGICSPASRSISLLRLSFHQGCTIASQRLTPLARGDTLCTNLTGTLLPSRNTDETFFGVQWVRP
# Assay: binding to cynomolgus CD27L (column 'Cyno Avidity EC50 nM'); method not stated for the figure
row,Binder,EC50
1,B4,0.34 nM
2,B5,0.87 nM
3,B8,0.43 nM
4,B9,0.48 nM
5,B10,1.4 nM

# Molecular target: T4, Histidine-tagged human soluble CD27L (human, UniProt P32970 39-193)
# T4 construct: also called Hu CD27L-his; soluble human CD27L-his; not shown: histidine tag
# T4 sequence: T2 sequence
# Assay: BIACORE 3000, antibody captured by goat anti-human IgG on a CM5 chip, Hu CD27L-his as analyte (column 'Affinity Hu Biacore KD nM')
row,Binder,Kd
1,B3,4.35 nM
2,B4,10.8 nM
3,B5,6.06 nM
4,B6,0.62 nM
5,B7,0.59 nM
6,B8,0.71 nM
7,B9,3.05 nM
8,B10,10.4 nM
